The results in this text go back to patent US20250212928A1.

For this test, the target named is bovine trypsin (bovine) (UniProt P00760). The experiment in a line: cell-based or functional assay.
Sequence of UniProt P00760 (P00760 24-246): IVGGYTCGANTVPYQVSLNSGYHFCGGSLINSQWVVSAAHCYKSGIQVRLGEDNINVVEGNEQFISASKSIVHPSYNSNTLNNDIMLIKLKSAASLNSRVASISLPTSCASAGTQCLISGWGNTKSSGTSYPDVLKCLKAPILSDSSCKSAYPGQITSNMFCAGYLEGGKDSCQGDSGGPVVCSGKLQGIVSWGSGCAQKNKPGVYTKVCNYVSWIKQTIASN

“native chicken ovomucoid (nOVD), from chicken egg white (from UniProt P01005 25-210)” showed a Trypsin inhibition activity of 13700 TIU/g.
